Data set [1] concerns the molecule itself. The experiment in a line: gel filtration on Sephadex-100, self-association (~1 mg/ml dimer; about 10 mg/ml tendency to tetramers). The procedure: (§1) Purified protein samples (˜1 mg/ml) were loaded onto a Sephadex-100 column (0.7×60 cm) and eluted with a solution of 50 mM phosphate buffer (pH 7.0) and 100 mM NaCl. EGFP, HcRed1 and DsRed2 (Clontech) were used as monomer, dimer and tetramer standards, respectively. In addition, a tendency to form tetramers has been indicated when recombinant purified EqFP578 was used for the gel-filtration at concentration of about 10 mg/ml.

Data set [2] deals with the molecule itself. The experiment in a line: gel filtration as in Example 2, self-association. Here is the method: as §1
Recombinant EqFP578 ml was prepared, purified and characterized as described in the Example 2 for wild type EqFP578. Fluorescence properties of this mutant were similar, but not identical to the wild type EqFP578. It has excitation-emission spectral peaks at 553 and 574 nm, respectively (FIG. 3). […] Like wild type EqFP578, EqFP578 m1 is a dimer.
For orientation: In gel filtration, larger molecules generally elute earlier.

Data set [3] concerns the molecule itself. The data set can be described thus: gel filtration, self-association. The procedure: as §1
Recombinant M1-NA was prepared, purified and characterized as described in the Example 2 for wild type EqFP578. According to gel-filtration data, M1-NA is a dimeric protein at a concentration of 1 mg/ml. Fluorescent properties of M1-NA are the same as those of EqFP578 ml. M1-NA is a bright red fluorescent protein, characterized with excitation/emission fluorescence spectra peaked at 553/574 nm. M1-NA fluorescence quantum yield=0.67, molar extinction coefficient (at 553 nm)=92,000 M(−1)cm(−1). M1-NA doesn't form aggregates in vitro, according to gel-electrophoresis data. It also doesn't form any noticeable aggregates upon expression in eukaryotic cells, as it was shown for HeLa and 293T cell lines.
It excitation/emission spectra peaked at 574/602 nm (see FIG. 4 for spectra). M1-602 nm fluorescence quantum yield=0.35, molar extinction coefficient (at 574 nm)=74,400 M″)cm⁽⁻¹⁾. According to gel-filtration data, M1-602 nm is a dimeric protein at concentration of 1 mg/ml.

Data set [4] deals with the molecule itself. The experiment in a line: gel filtration (self-association). The procedure:
as §1
Recombinant nrM181-5 was prepared, purified and characterized as described in the Example 2 for wild type EqFP578. nrM181-5 is a cyan fluorescent protein, characterized with excitation/emission fluorescence spectra peaked at 400/470 nm (see FIG. 7 for spectra). According to gel-filtration data, nrM181-5 is a monomeric protein at a concentration of 1 mg/ml. The protein is capable of photoconversion to the red fluorescent form in response to violet light irradiation.

Substitutions are numbered along the chain they refer to.

B1: wild type Entacmaea quadricolor red fluorescent protein EqFP578 (other)
chain: MSELIKENMHMKLYMEGTVNNHHFKCTSEGERKPYEGTQTMKIKVVEGGPLPFAFDILATSFMYGSKTFINHTQGIPDLFKQSFPEGFTWERITTYEDGGVLTATQDTSLQNGCIIYNVKINGVNFPSNGSVMQKKTLGWEANTEMLYPADGGLRGHSQMALKLVGGGYLHCSFKTTYRSKKPAKNLKMPGFHFVDHRLERIKEADKETYVEQHEMAVAKYCDLPSKLGHR
notes: Recombinant protein from E. coli, purified on TALON resin; Dimer by gel filtration at ~1 mg/ml, with a tendency to form tetramers at about 10 mg/ml; not shown: N-terminal six-histidine tag from the pQE30 vector
B1: the binding result in data set [1] is recorded as “binds”.

B2: EqFP578 m1 mutant (other)
chain: B1 chain with R32G, T68A, L79F, L110F, S131P, L138R
notes: Engineered mutant of EqFP578; also called EqFP578 ml
In the case of B2, the binding result in data set [2] is “binds”.

B3: M1-NA non-aggregating mutant of EqFP578 (other)
chain: MGEYSELITENMHMKLYMEGTVNNHHFKCTSEGEGKPYEGTQTMKIKVVEGGPLPFAFDILATSFMYGSKAFINHTQGIPDFFKQSFPEGFTWERITTYEDGGVLTATQDTSFQNGCIIYNVKINGVNFPSNGPVMQKKTRGWEANTEMLYPADGGLRGHSQMALKLVGGGYLHCSFKTTYRSKKPAKNLRMPGFHFVDHRLERIKEADKETYVEQHEMAVAKYCDLPSKLGHS
Regarding B3, in data set [3], the binding result is listed as “binds”.

B4: M1-602 mutant of EqFP578 (other)
chain: B3 chain with Y4D, F113L, I118L, R141L, N146S, G155S, S161G, F177L, R191K
notes: Engineered red-shifted mutant; also called M1-602 nm
On to B4, for which, in data set [3], the binding result is listed as “binds”.

B5: M1-637 mutant of EqFP578 (other)
chain: B3 chain with Y4D, F113L, I118L, R141L, N146S, G155S, F177L, R191K, H200R
Consider B5, for which the binding result in data set [3] is on record as “binds”.

B6: nrM181-5 cyan mutant of EqFP578 (other)
chain: MSELIKENMHMKLYMEGTVNNHHFKCTSEGEGKPYEGTQTMKIKVVEGGPLPFAFDILATSFMYGSKTFINHTQGIPDFFKQSFPEGFTWERVTTYEDGGVLTATQDTSLQDGCLIYNVKIRGVNFPSNGPVMQKKTLGWEAHTEMLYPADGGLEGRSDMALKLVGGGHLIANFKTTYRSKKPAKNLKMPGVYYVDHRLERIKEADKETYVEQHEMAVAKYCDLPSKLGHKLN
notes: Derived from M1-mono1
Turning to B6, in data set [4], the binding result was “no binding (tested: 1 mg/ml)”.

B7: Cyan-2-1 cyan mutant of EqFP578 (other)
chain: B6 chain with E36G, K42R, F53V, K67R, H143F, A172C, H197Y, M216V, K220R
notes: Derived from M1-mono1
Turning to B7, the binding result in data set [4] was “no binding (tested: 1 mg/ml)”.
